{"source": "paper PMC13062060", "about": "“Calcium activation mechanism of a noncanonical aromatic L-amino acid decarboxylase from psilocybin mushroom Psilocybe cubensis” (Communications Biology, 2026)", "tested_on": "N[C@@H](Cc1ccccc1)C(=O)O", "assay": "LC-MS of phenylethylamine formed, Michaelis-Menten fit", "format": "biochemical, Psilocybe cubensis", "details": "30 mM calcium acetate (activating), 50 mM Tris pH 8.0, room temperature, brackets 95% CI, also measured in 30 mM NaCl", "from_the_text": "LC-MS of phenylethylamine formed, Michaelis-Menten fit on PcncAAAD (noncanonical aromatic L-amino acid decarboxylase)", "data": [{"substance": "PcncAAAD (noncanonical aromatic L-amino acid decarboxylase) (Psilocybe cubensis; D971A/D973A/E637A/E638A/E972A)", "values": [{"measurement": "Km", "result": "513 [319–839] µM"}, {"measurement": "kcat", "result": 0.073, "unit": "s⁻¹"}]}, {"substance": "PcncAAAD (noncanonical aromatic L-amino acid decarboxylase) (Psilocybe cubensis; D825A/D931A/E824A)", "values": [{"measurement": "Km", "result": "174 [105–287] µM"}, {"measurement": "kcat", "result": 0.41, "unit": "s⁻¹"}]}, {"substance": "PcncAAAD (noncanonical aromatic L-amino acid decarboxylase) (Psilocybe cubensis; D825A/D931A/D971A/D973A/E637A/E638A/E824A/E972A)", "values": [{"measurement": "Km", "result": "586 [359–979] µM"}, {"measurement": "kcat", "result": 0.044, "unit": "s⁻¹"}]}, {"substance": "PcncAAAD (noncanonical aromatic L-amino acid decarboxylase) (Psilocybe cubensis)", "values": [{"measurement": "Km", "result": "88 [49–154] µM"}, {"measurement": "kcat", "result": 0.51, "unit": "s⁻¹"}]}]}
